The values below come from the RNAGym collection of RNA variant scans (doi:10.7554/elife.80360).

First the molecules themselves.
B1: HDV Ribozyme (parent)
chain: GGCCGGCAUGGUCCCAGCCUCCUCGCUGGCGCCGGCUGGGCAACAUUCCGAGGGGACCGUCCCCUCGGUAAUGGCGAAUGGGACCCA

In this data set the parent is B1. Description: self-cleavage, relative activity (ratio to wild type); higher = more cleavage; co-transcriptional.
For U20G G59A, the self-cleavage came out at 0.268. The figure for U20C G35A is 0.101; for U20C G35C it is 0; for C21A C64A it is 0.0692. The figure for C21A C64G is 0.0604. As to C21A C64U, the self-cleavage was found to be 0.0852.

Turning to C21G A71C, the self-cleavage came to 0.0449. The figure for C21G A71G is 0.0594; for C21G C44G it is 0.141. As for C21G C84A, the figure is 0.138; as for C21A C61U, 0.0963. The figure for C21A C61A is 0.0511; for U20G C41U it is 0.287; for U20G C41G it is 0.166. Regarding C21A C75A, the self-cleavage was 0. As for C21G G81A, the self-cleavage was 0.0604.

On to C21G G81U, for which the self-cleavage came to 0.18. As for C21G G81C, the figure is 0.0504. Turning to U20G C84U, the self-cleavage was found to be 0.185.

Regarding U20G C84A, the self-cleavage stood at 0.222. The figure for C21G A45C is 0.18; for C21G A45U it is 0.0405. The figure for C21A G52U is 0.107; for C21A G52C it is 0.125. With C21G C24U, the self-cleavage was found to be 0. As for C21G C24A, the figure is 0.0437; as for U20C U60C, 0.0978; as for U20C U60A, 0.115.

Turning to C21G C22A, the self-cleavage turned out to be 0.0396. The figure for C21G C22G is 0; for C21G C22U it is 0.0519; for U20G G31U it is 0.102. For the variant C21G C41A, the self-cleavage is 0.0573.

With C21A C66G, the self-cleavage was 0. As for U20C G76C, the figure is 0.0773.

As to U20C G39U, the self-cleavage amounted to 0.0386. The figure for C21A G28C is 0; for C21A C62U it is 0.0519.

As to C21A C62G, the self-cleavage amounted to 0.138. The figure for U20G G52A is 0.499. The figure for U20G G52C is 0.256.

On to C21A G31U, for which the self-cleavage stood at 0.142. The figure for C21A G31C is 0.0817; for U20C G31A it is 0.0415. As for U20C G25C, the figure is 0.227. The figure for U20C G25U is 0.0415. As for C21A C44G, the self-cleavage was found to be 0.0852. The figure for C21A C44A is 0.0604; for U20G C21G it is 0; for U20G C21A it is 0.142. The figure for U20G U47C is 0.133; for C21G G76U it is 0.0583; for U20C G40A it is 0.0941. The figure for U20C G40C is 0.0396; for C21A G39C it is 0.113.

Regarding C21A G39A, the self-cleavage stood at 0.0277. As for U20C U46A, the figure is 0.317; as for U20C U46C, 0. The figure for C21G C66A is 0.0739; for C21G C66G it is 0; for C21A U65G it is 0.0665. The figure for C21A U65C is 0.0583; for U20C C86G it is 0.208.

Turning to U20G A45G, the self-cleavage is 0.0755. The figure for U20G A45U is 0.138; for C21A G68U it is 0.0432. The figure for C21A G68A is 0.0779. As for U20G U23G, the figure is 0.185.

For the variant U20G G35C, the self-cleavage was 0. For the variant C21A A70U, the self-cleavage was 0.

Take C21G A83U: the self-cleavage was 0.0875. For the variant C21A G80U, the self-cleavage is 0.0622. As for C21A G80A, the figure is 0.0289; as for C21A A43G, 0.132. On to C21A A43C, for which the self-cleavage was determined as 0.116.

Regarding C21G A77G, the self-cleavage stood at 0.0386. The figure for C21G A77C is 0.0536.

Turning to C21G G54U, the self-cleavage came out at 0.0875. As for C21G G54A, the figure is 0.0496. As for C21G G25C, the figure is 0.0489. Consider C21G G25U, for which the self-cleavage amounted to 0. On to C21G G38U, for which the self-cleavage amounted to 0.0702. As to C21G G38A, the self-cleavage was 0.0339. The figure for U20G G40A is 0.374. As to C21G G28C, the self-cleavage was 0.0755.

For C21G G28A, the self-cleavage was found to be 0.0744. Consider U20G G82U, for which the self-cleavage was 0.104. As for C21G C30U, the figure is 0.0308; as for U20C G28C, 0.0755. As for C21G C86A, the figure is 0.0665.

C21G C86G: the self-cleavage was 0.0369. As for C21A G53C, the figure is 0.0639; as for U20C G80C, 0.106.

Turning to U20C G81C, the self-cleavage came to 0. The figure for U20C G81A is 0; for U20C U47C it is 0.262; for U20G G73U it is 0.136. For the variant U20G G73C, the self-cleavage is 0. Consider U20G U60A, for which the self-cleavage amounted to 0. As for U20G U37A, the figure is 0; as for U20C G52A, 0.175; as for U20C G52C, 0.244. With U20G G34C, the self-cleavage stood at 0.138.

As for U20G G34U, the self-cleavage is 0.0519. Regarding C21A C49G, the self-cleavage came out at 0.102.

U20C G53U: the self-cleavage is 0.101. With U20C G53A, the self-cleavage was 0.122. As for U20G G54C, the figure is 0.571; as for U20G C62G, 0.0755; as for U20C G73A, 0. As for U20C G73C, the figure is 0.135. As for U20G C64A, the figure is 0.178. For the variant U20G C64G, the self-cleavage was 0.196. The figure for C21A G34A is 0.119; for C21G C32A it is 0.0415. As for C21G C32G, the figure is 0.19; as for U20G G29A, 0.161; as for U20C U69A, 0. As for U20C U69C, the figure is 0.208; as for U20G G38A, 0.0573; as for U20G G38C, 0.0489. As for U20C G82A, the self-cleavage was determined as 0.0462. The figure for U20C G82U is 0.0449; for U20G C44A it is 0.262; for U20G G80C it is 0.0519. The figure for U20G U79C is 0.0773; for U20G U79G it is 0.208. For the variant U20G U79A, the self-cleavage is 0.175. Regarding C21A G38U, the self-cleavage was determined as 0.0665.

On to U20G C32U, for which the self-cleavage came to 0.0519. Regarding U20G C32A, the self-cleavage was 0. The figure for C21G C75G is 0.0426.

With C21A A56G, the self-cleavage worked out at 0.109. As for C21A A56C, the figure is 0.0898; as for U20C U65C, 0.401; as for U20C U65G, 0.145.

With C21G G59U, the self-cleavage amounted to 0.0941. The figure for C21G G59A is 0.0594; for C21G A42U it is 0.0437; for C21G A42G it is 0.0573. For the variant C21A A51C, the self-cleavage worked out at 0.175.

In the case of C21A A51G, the self-cleavage turned out to be 0.0326. As for C21A A51U, the figure is 0.0369. The figure for C21A A87C is 0.0742. As for C21G U27C, the figure is 0.217; as for C21A U60G, 0.138. As for U20G C33A, the self-cleavage was found to be 0.119. The figure for U20C U72G is 0.0723. For U20C U27C, the self-cleavage turned out to be 0. U20C U27A: the self-cleavage came to 0.196. Take C21A A77G: the self-cleavage amounted to 0.0678. The figure for C21A A71U is 0.106; for C21A A71G it is 0.0573. As for C21A U23C, the figure is 0.0755. The figure for C21A U23G is 0.125. Consider C21G G40A, for which the self-cleavage amounted to 0.0346. As for C21G G40C, the figure is 0.0898; as for C21A C22G, 0.108. Turning to C21A C22A, the self-cleavage is 0.0898. As for U20G C26G, the figure is 0.196; as for U20G C26A, 0.32; as for U20G G39U, 0.0369.

Turning to U20G G39A, the self-cleavage was determined as 0.0396. The figure for U20G G39C is 0.175; for C21A G82A it is 0.0594.

On to C21A G82U, for which the self-cleavage turned out to be 0.0297. The figure for C21A G82C is 0.104.
